Results taken from the nanobody polyreactivity screen of Harvey et al. (2022).

Test: yeast display, Sf9 membrane polyspecificity reagent, FACS + sequencing; frameworks hold sequencing errors
How it was run: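 A synthetic nanobody library was expressed on Saccharomyces cerevisiae BJ5465 by galactose induction for 36–48 hours. The library was stained for 1 hour at 4 °C with 10% biotinylated, detergent-solubilized Sf9 membrane reagent and enriched with streptavidin microbeads before FACS. Low and high (top ~1%) gates were set on anti-HA fluorescence for expression and streptavidin fluorescence for reagent binding, and each polyreactivity label reflects the gate of origin.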

Sequence | polyreactivity (PSR sort gate)
QVQLVESGGCLVQAGGSLRLSSAASGFIIPGNPMCWYRQAPAKERDLVAAITSGGSTKYADSVKGRITISRDNAKNTDYLQMNSLKPEDTAVYYCAARGFPPGDEWHPYDYWGQGTQVTVSS | low polyreactivity
QVQLVESGGGLVQAGGSLRLSCAASGYTFGQNAMGWYRQAPGKEREFVAAISWSGTSTYYADSVKGRFTISRDNAKNTVYLQMNSLKPEDTALYYCAARSYRYVSRREYWGQGTQVTVSS | high polyreactivity
QVQLVESGGGLVQAGGSLRLSCAASGFIFASYAMGWYRQAPGKERELVAAITQSGGITYYADSVKGRFTISRDNAKNTVYLQMTSLKPEDTAVYYCNTPLLKRTTRGRERNYWGQGTQVTVSS | low polyreactivity
QVQLVESGGGLGQAGGSLRLSCAASGRTITFNTMGWYRPAPGKERELVAGIDRGGSTNYADSVKGRFTISRDNAKNTVDLQMNSLKPEDTAVYYCAARNLRYRYRNYDYWGQGTQVTVSS | high polyreactivity
QVQLVESGGGLVQAGGSLRLSCAASGIISSYYAMGWYRQAPGKERELVAAISKSGGSTDYADSVKGRFTISRDNAKNTVYLQMNSLKPEDTAVYYCAADAYWSYSTRYWFAYDYWGQGTQVTVSS | low polyreactivity
QVQLLESGGGLVQAGGSLRLSCAASGSTIVSYDMGWYRQAPGKERELVAAITYDGDSTYYADSVKGRFTISRDNAKNTVYLQMNSLKPEDTAVYYCAAEPGEDLKFRGGFEYWGQGTQVTVSS | low polyreactivity
QVQLVESAGGLVQAGGRLRLSCAASGIIFEQYAMGSYRQAPGKERELVAAISSGCTTYADSVKGRFTISRDNAKNTVYLQMNSLTPEDTAVYYGNADLSWDGPDWSDYEYDYWGQGTQVTVSS | low polyreactivity
QVQLVESGGGLVQAGGSLRLSCAASGFTFTENVMGWYRQAPGKEREFVAAITYIGGRTYYADSVKGRFTISRDNAKNTVYFQMNSLKPEDTAVYYCAADWAYYVDSYLYYTFDYWGQGTQVTVSS | low polyreactivity
QVQLVESGGGLLQAGGSLRLSCAASGFIFRTYAMGWYRQAPGKERELVARISWSGGSTYYADSVKGRFTISRDNAKNTVYLQMNSLITEDTAVYYCARLGTLYESIEYDYWGQGTQVTVSS | low polyreactivity
QVQLVESGGGLVQAGGSLRLSCAASGIIFYYNAMGWYRQAPGKERELVAAISWSGGSTYYADSVKGRFTISRDNAKNTVYLQMNSLKPEDTAVYYCNAVRSTSYGSYNYWGQGTQVTVSS | low polyreactivity
QVQLVESGGGLVQAGGSLRLSCAASGRIFYYNDLGWYRQAPGKERELVAAISGSGGSTYYADSVKGRFTISRDNAKNTVYLQMNSLKPEDTAVYYCSYYYWGQGTQVTVSS | low polyreactivity
QVQLVESVGGLVQAGGSLRLICAASGSIFGVYAMGWYRQAPGKERELVAVIRWRGGSTYYADSVKGRFTISRDYAKNTVFLQMNILKPEDTAVYYCAARLHIVVATYDRRYDYWGQGTQVTVSS | low polyreactivity
QVQLVESGGGLVQAGGSLRLSCAASGSIFPFYAMGWYRQAPGKERELVATISWSGGRTYYADSVKGRFTISRDNAKNTVYLQMNSLKPEDTAVYYCAAGSYHYPNAYYYWGHGTQVTVSS | high polyreactivity
QVQLVESGGGLVQAGGSLRLSCADSGSIFDQYTMGWYRQAPGKERELVAGISSGGITNYADSVKGRFTISRDNAKNTVYLQMNSLKPEDTAVYYCAADNWYLAEYDYWGQGTQVTVSS | low polyreactivity
QVQLVESGGGLVHAGGSLRLSCAASGSTFNRYAMGWYRQAHGKERELVASISWGGGRTYYADSVKGRFTISRDNEKNTVYLLMNSLKPEDTAVYYCATDRYYRHYEVDYWGQGTQVTVSS | low polyreactivity
QVQLVESGGGLVQAGGSLRLSCAASGFILATNAMGWSRQAPGKERELVAAISYAGGSTNYADSVKGRFTISRDNAKNTVYVPMNSLKPEDTAVYYCNAGGTVIWAWYCPVYSWGHGTQVTVSS | low polyreactivity

Sequence | polyreactivity (PSR sort gate)
QVQLVESGGGLVQAGGSLRVSCAASGSTFASYAMGWSRQAAGKVWEFVAAICRSGGSTYYADSVKGRFTISRDNAKNTVSFQMNSREPEDPAVYYWAKSRYDYTIPEGGYWGQGTQATVSS | low polyreactivity
QVQLVESGGGLVQAGGSLRLSCAASGRTFDSNAMGWYRQAPGKERELVAAISWSGGSTYYADSVKGRFTISRDNAKNTVYLQMNSLKPEDTAVYYCNRLGRHAPATRYGYWGQGTQVTVSS | high polyreactivity
QVQLVESGGGLVQAGGSLRLSCAASGLIFRTYTMGWYRQAPGKERELVAAISASGGRTYYADSVKGRFTISRDTAKNTVYLQMNRLKPEDTAVNYFNARVNYKGYDSWGQGTQVTVSS | high polyreactivity
QVQLVESGGGLVQAGGSLSLSCAATGRIFGPYAMGWYRQAPGKERELVATINSGGSTHYADSVKGRFTISRDNAKNTVYLQMNSLKPEDTAVYYCAATSAYGRYRYYYWGQGTQVTVSS | high polyreactivity
QVQLVESCGGLVQAGGSLRLSCAASGYTFRYYAMGWYRQAPGKERELVARITGRAGSTYYADSVKGRFTISRDNAKNTVYLQMNSLKPEDTAVYYCAASIREGFYWGHGTQVTVSS | high polyreactivity
QVQLVESGGGLVQAGGSLRLSCAASGRTFAYYAMGWYRQAPGKERELVAAISTNGGTYYADSVKGRFTISRDNAKNTVYFQLNSLKPEDTAVYSCAAYTSYDVDYWGQGTQVTVSS | low polyreactivity
QVQLVESGGGLVQAGGSLRLSCAASGLIFRDNTMGWYRQAPGKERELVAAINSGGGTSYADSVKGRFTISRDNAKNTVYLQMNSLKPEDTAVYYCAAAWWPYRYGTYYSQYDYWGQGTQVTVSS | low polyreactivity
QVQLVESGGGLVQAGGSLRLSCAASGHIFLHNAMGWYRQAPGKERELVAGITYSDTSTYADSVKGRFTISRDNAKNTVYLQMNSLKPEDTAVYYCEYYYWGQGTQVTVSS | low polyreactivity
QVQLVESGGGLVQAGGSIRLSCAASGRIFRYNAMGWYRQAPGKERELVAAISGSGDRTYYADSVKGRFTISRDTAKNTVYLQMNSLKPEDTAVYDCAADVVWRQYGSWFYYWGQGTQVTVSS | high polyreactivity
QVQLVESGGGLVQAGGSLRLSCAASGSTLEYYAMGWYRQAPGKERELVAAISSGGSTNYADSVKGRFTISRDNAKNTVYLQMNSLKTEDTAVYYCAAERYYRFVYTCYDYWGQGTQVTVSS | high polyreactivity
QVQHVESGGGLVQAGGNLRLSCPASGFTIYYYAMVCDRQAPGKERELVAGISKSGGITYYADSVKGRFTISRDNAKNTVYLQMNSLKPEDTAVYYCAAAEWYQFFIYRYTYEYWGQGSQVTVSS | low polyreactivity
QVQLVESGGGLVQAGGSLRLSCAASGRTIYQYAMGGYRQATGKARELDAAISRGGSTNFADSLKGRFTISRDNAKNTVYLQMNSLKPEDTAVYYCASWYKFLSLKRLYERDYWGQGTQVTVSS | high polyreactivity
QVQLVESGGGLVQAGGSLRLICAASGRTFKRYVIGWYRQAPRKERELVATITRGGSTTYADSVKGRFTISRDNAKNTVFLQMNSLKPEDTAVYYCIADLYQVYLSDYWGQGTQVTVSS | high polyreactivity
QVQLVESGGGLVQAGGSLRLSCAASGIIFEGKARGWYRQAPGTERELVAAISTSTGRTYYADSVKGRFTISRDNAKNTVYLQINSLKPEDTAVYYCAAYIRTTRFDYWGQGTQVTVSS | high polyreactivity
QVQLVESGGGLVQAGGSLRLSCAASGGIFAYYVMGWYRQAPGKERELVASISSGGGTYYADSVKGRFTISRDNAKNTVYLQMNSLKPEDTAVYYCAARWLRYVYPDGHLFWYDYWGQGTQVTVSS | high polyreactivity
QVQLVESGGGLVQAGGSLRLSCAASGFTIRNYAMGLYRQAPGKERELFAAIRGRGGSTYYADSVKGRFTISRDNAKNTDYLQMNSLKPEDTAVYYCARVGYASYEHDYWGQGTQVNVSS | high polyreactivity
